Reference: article PMC3029278

Biological target: CEACAM1-4L-HA (HA-tagged human CEACAM1) (human) (UniProt P13688)
UniProt P13688, sequence (P13688 35-526): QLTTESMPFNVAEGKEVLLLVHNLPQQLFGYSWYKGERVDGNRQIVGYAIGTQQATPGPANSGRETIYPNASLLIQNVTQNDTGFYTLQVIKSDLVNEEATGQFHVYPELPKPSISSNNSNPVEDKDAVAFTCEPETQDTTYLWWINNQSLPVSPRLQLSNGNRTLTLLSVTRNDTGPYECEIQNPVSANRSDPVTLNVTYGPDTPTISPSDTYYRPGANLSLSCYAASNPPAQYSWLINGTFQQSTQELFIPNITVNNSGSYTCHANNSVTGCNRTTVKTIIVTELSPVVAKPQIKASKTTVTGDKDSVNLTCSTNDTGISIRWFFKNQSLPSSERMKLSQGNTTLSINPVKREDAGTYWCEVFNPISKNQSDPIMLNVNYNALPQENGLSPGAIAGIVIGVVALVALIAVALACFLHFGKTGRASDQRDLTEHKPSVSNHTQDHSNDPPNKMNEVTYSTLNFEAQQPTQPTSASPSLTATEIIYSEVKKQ

“Opa52 protein of Neisseria gonorrhoeae strain MS11 (natural protein)” showed an internalised OpaCEA-positive gonococci in CEACAM1-transfected 293 cells (gentamicin protection assay, 2 h) of 210000 cfu/ml.
